Legend:
[1] = target: VEK50[RH1/AA] (VEK50^ΔRH1), VEK50 with R17H18 replaced by Ala-Ala (Streptococcus pyogenes (isolate AP53)); assay: NMR titration
[2] = target: VEK50[RH2/AA] (VEK50^ΔRH2), VEK50 with R30H31 replaced by Ala-Ala (Streptococcus pyogenes (isolate AP53)); assay: NMR titration
[3] = target: VEK50[RH1/AA] (VEK50^ΔRH1), VEK50 with R17H18 replaced by Ala-Ala (Streptococcus pyogenes (isolate AP53)); assay: ITC
[4] = target: VEK50[RH2/AA] (VEK50^ΔRH2), VEK50 with R30H31 replaced by Ala-Ala (Streptococcus pyogenes (isolate AP53)); assay: ITC
[5] = target: VEK50[RH1/AA] (VEK50^ΔRH1), VEK50 with R17H18 replaced by Ala-Ala (Streptococcus pyogenes (isolate AP53)); assay: AUC
[6] = target: VEK50[RH2/AA] (VEK50^ΔRH2), VEK50 with R30H31 replaced by Ala-Ala (Streptococcus pyogenes (isolate AP53)); assay: AUC

**Q.** “K2hPg, kringle 2 domain of human plasminogen, triple variant C4G/E56D/L72Y (domain or fragment)” was tested. Which stoichiometry N (K2hPg per peptide) [1] did it give?
**A.** 1

**Q.** What about the stoichiometry N (K2hPg per peptide) [2] of the same substance?
**A.** 1

**Q.** And the Kd [3]?
**A.** 9 nM

**Q.** What about the stoichiometry N (K2hPg per peptide) [3] of the same substance?
**A.** 1

**Q.** What about the Kd [4] of the same substance?
**A.** 42 nM

**Q.** What about the stoichiometry N (K2hPg per peptide) [4] of the same substance?
**A.** 1

**Q.** What about the stoichiometry N (K2hPg per peptide) [5] of the same substance?
**A.** 1

**Q.** And the stoichiometry N (K2hPg per peptide) [6]?
**A.** 1
